Assay [1] has as its target Protein Kinase A catalytic subunit (bos taurus) (UniProt P00517). Nature of the assay: cell-based or functional assay.
Assay [2] shares this target. Put plainly: holoenzyme formation with CS; method and reference not described.

The results in this text go back to patent publication US20110275057A1.

In assay [1], “Protein Kinase A regulatory subunit (RIα isomer), double Cys mutant (Ser 145→Cys; Gly 235→Cys), no DNA coupled (from UniProt Q9DBC7 1-381)” returned an inhibitory effects (on kinase activity) relative to the wild type RS of over 80% and a kinase activity, fold increase on addition of cAMP to the holoenzyme built with the Cys mutant without DNA (FIG. 17b) of 3 fold.

In the case of “RIα-DNA chimera hybridized with the complementary DNA 60 mer (ds chimera, under mechanical tension) (from UniProt Q9DBC7 1-381)”, in assay [1], the kinase activity (Luciferase assay, ATP disappearance), fold increase over the ss chimera holoenzyme, batch of FIG. 17a turned out to be 2 fold; the kinase activity, increase over the ss chimera holoenzyme, second synthesis batch (FIG. 17b) amounted to 50%; the γDNA (increase in activity by the complementary DNA, corrected for the yield; case γDNA≧γcAMP) was 2.7 fold.

The substance “RIα-DNA chimera: PKA regulatory subunit (Ser 145→Cys; Gly 235→Cys) with a single stranded DNA 60 mer coupled to the two Cys residues (from UniProt Q9DBC7 1-381)” yielded a decrease in associating with the CS to form the holoenzyme in assay [2] of 20%. In assay [1], this substance displayed a kinase activity, fold increase on addition of cAMP to the chimera holoenzyme, batch of FIG. 17a of 3 fold; a kinase activity, fold increase on addition of cAMP to the chimera holoenzyme, second batch (FIG. 17b) of 2 fold; a γcAMP (case γDNA<γcAMP) of 2.3 fold; a γcAMP (increase in activity by cAMP; case γDNA≧γcAMP) of 2.6 fold.
